Measurements published in publication PMC9969416 (Endocrinology, 2023).

Biological target: the molecule itself
Assay: crystal structure

B1: ligand-binding domain (LBD) of human RXRα (residues 223-462) (domain or fragment)
chain: TSSANEDMPVERILEAELAVEPKTETYVEANMGLNPSSPNDPVTNICQAADKQLFTLVEWAKRIPHFSELPLDDQVILLRAGWNELLIASFSHRSIAVKDGILLATGLHVHRNSAHSAGVGAIFDRVLTELVSKMRDMQMDKTELGCLRAIVLFNPDSKGLSNPAEVEALREKVYASLEAYCKHKYPEQPGRFAKLLLRLPALRSIGLKCLEHLFFFKLIGDTPIDTFLMEMLEAPHQMT
B1: binds.
